Experimental data reported in patent publication US20250223583A1 (BROAD INSTITUTE, published 2025).

Target: T1, murine CD47 (murine, UniProt Q61735 19-303)
T1 sequence (looked up): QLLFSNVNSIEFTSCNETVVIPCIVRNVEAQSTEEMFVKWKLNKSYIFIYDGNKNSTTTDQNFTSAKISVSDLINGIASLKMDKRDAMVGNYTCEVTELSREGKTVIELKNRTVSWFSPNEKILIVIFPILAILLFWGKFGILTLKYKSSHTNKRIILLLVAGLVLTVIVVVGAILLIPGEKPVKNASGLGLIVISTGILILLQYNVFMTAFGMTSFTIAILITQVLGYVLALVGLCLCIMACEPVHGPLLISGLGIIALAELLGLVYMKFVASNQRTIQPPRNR
Experiment: cell-based or functional assay

B1: anti-mCD47 nanobody-ultraID (murine CD47) (other)
chain: QVQLVESGGGLVEPGGSLRLSCAASGIIFKINDMGWYRQAPGKRREWVAASTGGDEAIYRDSVKDRFTISRDAKNSVFLQMNSLKPEDTAVYYCTAVISTDRDGTEWRRYWGQGTQVTVSSGGLPETGGGGGSGGGSGGGSMFKNLIWLKEVDSTQERLKEWNVSYGTALVADRQTKGRGGPGRKWLSQEGGLYFSFLLNPKEFENLLQLPLVLGLSVSEALEEITEIPFSLKWPNDVYFQEKKVSGVLCELSKDKLIVGIGINVNQREIPEEIKDRATTLYEITGKDWDRKEVLLKVLKRISENLKKFKEK
With B1 the “biotin labeling of B16 cells, fold over non-targeted ultraID at 1 nM” value was 10 fold and the “streptavidin-PE signal on B16 cells, enzyme-based labeling relative to binding by the biotinylated nanobody construct alone” value was no less than 20 fold.
